# B1: TPR t1 (parent)
# chain: GACCAAUCUGCCCUCAGAGCUCGAGAACAUCUUCGGAUGCAGAGGAGGCAGGCUUCGGUGGCGCGAUAGCGCCAACGUCCUCAACCUCCAAUGCAUCCCACCACAUGAUGAUGCCUGAAGAGCCUUGGUUUUUUG
# Variants of: B1
# Assay: polymerase ribozyme fitness, log enrichment relative to wild type (log ratio); higher = more active; in vitro selection for triplet polymerase activity
# Method in brief: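 A single round of triplicate in vitro selection, including frozen incubation at −7 °C, was applied to PCR-built, transcribed mutant libraries of each subunit of a heterodimeric triplet polymerase ribozyme. Illumina sequencing of input and output libraries retained genotypes with ≥10 input reads and ≥1 read per output. Fitness is the base-2 logarithm of genotype enrichment divided by wild-type enrichment, from inverse-variance-weighted replicate averages.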
row,Variant,polymerase ribozyme fitness (log ratio)
1,C34G G61A U87A G110C,-6.72
2,C34U C64U G93A A105C C114U,-5.2
3,C34U G58A C99U,-4.17
4,C34A C86A,-3.67
5,C34A C85U A118U U130A U132C,-3.6
6,C34U G65C C70U G117C A121C,-7.03
7,C34U G69A,-5.14
8,C34U A43G G63A G65U C124A,-6.99
9,C34U C73A A111U C114G G135A,-6.34
10,C34U C73U,-3.35
11,C34U C73A,-4.32
12,C34U G77A A103C G117U G127C U130A,-7.38
13,C34A G61A C94A,-3.89
14,C34U G61C C80U A83G,-7.08
15,C34G G61A G120A,-5.72
16,C34U,-4.05
17,C34G,-6.09
18,C34A G48A,-3.24
19,C34U A41U C72U A105C G113C,-7.42
20,C34U G120A,-3.93
21,C34U A68G C70U,-6.49

row,Variant,polymerase ribozyme fitness (log ratio)
1,C34G C53G C72A C104A,-4.72
2,C34U G117A,-5.61
3,C34G C53G C104A,-4.3
4,C34U C114G,-6.1
5,C34U G42C,-6.44
6,C34U A105G G120A,-5.77
7,C34U G47C A66C G71A G110C U129C,-6.98
8,C34G C53G G61C U116C,-7.12
9,C34A U78A,-3.26
10,C34U C85U,-4.13
11,C34G G44A G71A A90G C101U A121U,-6.41
12,C34U G61C C102U C124U,-4.34
13,C34G C53A,-5.71
14,C34G G63U C70U,-6.08
15,C34U G35U,-4.9
16,C34A C89U U112A U133A,-1.77
17,C34A U59A C124A,-0.848
18,C34G G61C C99A U112G U116G,-6.27
19,C34U G63U G69A A84G,-6.86
20,C34A G61U,-3.25
21,C34A G61C,-4.99

row,Variant,polymerase ribozyme fitness (log ratio)
1,C34A G60C,-3.4
2,C34A C124G U130G,-0.7
3,C34A G47C C82U A91G G120U,-7.66
4,C34G C101U,-6.46
5,C34A C94A,-4.19
6,C34A G45C C53A G60U,-1.66
7,C34G U87G U109A,-6.29
8,C34A G110U A118U,-6.14
9,C34A G47U G61A C86U,-4.04
10,C34G C115A,-5.21
11,C34A U129C,-3.48
12,C34A U129G,-3.7
13,C34U C94G,-5.95
14,C34A G45C C53A G60U C124A,-1.69
15,C34A G47U G61A C86U U130A,-3.42
16,C34G A43G C53A A111C C123G,-6.97
17,C34U C56U C115A,-4.02
18,C34U C64U C94G G113A,-7.42
19,C34U G45U C88A C124G,-4.4
20,C34A U59C U112G,-4.39
21,C34A U59C G127C,-4.66

row,Variant,polymerase ribozyme fitness (log ratio)
1,C34A G93C,-3.62
2,C34A G93A,-2.95
3,C34G C86U,-6.51
4,C34G G36A,-6.25
5,C34G A91G C114A U132A,-6.48
6,C34A G120A C124G U133A,0.189
7,C34U A41U G63U U109A C115A,-5.59
8,C34A U131A,-1.94
9,C34G G47C C104A C124A,-5.21
10,C34U G63A A90G,-6.16
11,C34U A37G C64U U78C G113U U125G,-5.79
12,C34A U112G U130A U133A,-3.74
13,C34A G60C C97A C115G,-5.15
14,C34U G44A G69A,-7.2
15,C34U G113A C124A,-5.17
16,C34G C49U,-6.27
17,C34A G77C U78C,-2.16
18,C34U C85U C102U,-3.64
19,C34U G69U A105U G120U,-2.74
20,C34U C70U U112A G135U,-6.08

# From the RNAGym collection of RNA variant scans (doi:10.1073/pnas.2313332121)
